In patent publication US8158585B2, “Cross-β structure comprising amyloid-binding proteins and methods for detection of the cross-β structure, for modulating cross-β structures fiber formation and modulating cross-β structure-mediated toxicity” (CrossBeta Biosciences B.V., priority 2002, dated 2012):

Tests used:
Aβ = target: T1, Aβ (Homo sapiens, UniProt P05067); test: Amyloid ELISA with tPA F-EGF-GST: Aβ; type: binding
T1 construct: Peptide Aβ (1-40), containing amino acids as present in the described human Alzheimer peptide; purchased Pepscan, Inc. or peptide synthesis facility of the Netherlands Cancer Institute; host or cells: chemical synthesis
Description: (§1) In order to define the affinity of the purified tPA F-EGF-GST recombinant protein, ELISAs were performed with immobilized amyloid (poly)peptides and non-amyloid control ΔmIAPP. Twenty-five μg ml^−1 of Aβ, FP13, IAPP or ΔmIAPP was immobilized on Exiqon peptide immobilizer plates. A concentration series of tPA F-EGF-GST in the presence of excess εACA was added to the wells and binding was assayed using anti-GST antibody Z-5. As a control, GST (Sigma-Aldrich, St. Louis, Mo., USA, catalogue #G-5663) was used at the same concentrations.

[1] = system: amyloid deposits in human brain inflicted by AD; test: Immunohistochemistry: binding of tPA F-EGF to human AD brain; conditions: 7 nM construct; Congo red fluorescence to locate amyloid
Description: Paraffin brain sections of a human inflicted with AD was a kind gift of Prof. Slootweg (Dept. of Pathology, UMC Utrecht). Sections were deparaffinized in a series of xylene-ethanol. Endogenous peroxidases were blocked with methanol/1.5% H2O2 for 15 minutes. After rinsing in H2O, sections were incubated with undiluted formic acid for ten minutes, followed by incubation in PBS for five minutes. Sections were blocked in 10% HPS in PBS for 15 minutes. Sections were exposed for two hours with 7 nM of tPA F-EGF-GST or GST in PBS/0.3% BSA. After three wash steps with PBS, sections were overlayed with 200 ng ml^−1 anti-GST antibody Z-5, for one hour. After washing, ready-to-use goat anti-rabbit Powervision (Immunologic, Duiven, The Netherlands, catalogue #DPVR-55AP) was applied and incubated for one hour. After washing, sections were stained for ten minutes with 3,3′-diamino benzidine (Sigma-Aldrich, St Louis, Mo., USA, catalogue #D-5905), followed by hematoxylin staining for ten seconds. After washing with H2O, sections were incubated with Congo red according to the manufacturer's recommendations (Sigma Diagnostics, St Louis, Mo., USA). […] Analysis of sections was performed on a Leica DMIRBE fluorescence microscope (Rijswijk, The Netherlands). Fluorescence of Congo red was analyzed using an excitation wavelength of 596 nm and an emission wavelength of 620 nm.

Aβ fibrils = target: T2, Aβ fibrils (Homo sapiens, UniProt P05067); test: Amyloid pull-down with insoluble Aβ fibers; type: binding; conditions: conditioned BHK medium
T2 construct: Peptide Aβ (1-40), containing amino acids as present in the described human Alzheimer peptide; purchased Pepscan, Inc. (The Netherlands) or peptide synthesis facility at the Netherlands Cancer Institute; host or cells: synthetic peptide

[2] = target: T3, fibrin fragment α148-160 FP13 (Homo sapiens, UniProt P02671); test: Amyloid ELISA with tPA F-EGF-GST: FP13; type: binding
T3 construct: purchased Pepscan, Inc. or peptide synthesis facility of the Netherlands Cancer Institute; host or cells: chemical synthesis
Description: as §1

IAPP = target: T4, IAPP (Homo sapiens, UniProt P10997); test: Amyloid ELISA with tPA F-EGF-GST: IAPP; type: binding
T4 construct: purchased Pepscan, Inc. (The Netherlands) or peptide synthesis facility at the Netherlands Cancer Institute; host or cells: synthetic peptide
T4 sequence (P10997 34-70 limits assumed): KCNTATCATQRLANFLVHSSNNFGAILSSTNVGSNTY
Description: as §1

Aβ (1-40) = Aβ (1-40) (Homo sapiens, UniProt P05067); test: ELISA: binding of tPA (f.l. tPA, K2-P tPA) to Aβ (1-40), with Congo red competition; design: Peptide Aβ (1-40), containing amino acids as present in the described human Alzheimer peptide; purchased Pepscan, Inc. or peptide synthesis facility of the Netherlands Cancer Institute; host or cells: chemical synthesis; conditions: 40 nM tPA, 0-100 μM Congo red
Description: (§2) Binding of tPA to albumin-g6p (four-week and 23-week incubations), albumin-glyceraldehyde, control albumin, human Hb-g6p (ten-week incubation), Hb control, or to Aβ (1-40) was tested using an enzyme-linked immunosorbent assay (ELISA) set-up. Albumin-g6p and control albumin (2.5 μg ml^−1 in coat buffer, 50 mM Na2CO3/NaHCO3 pH 9.6, 0.02% m/v NaN3, 50 μl/well) were immobilized for one hour at room temperature in 96-well protein Immobilizer plates (Exiqon, Vedbaek, Denmark). Aβ (1-40) (10 μg ml^−1 in coat buffer) was immobilized for 75 minutes at room temperature in a 96-well peptide Immobilizer plate (Exiqon, Vedbaek, Denmark). Control wells were incubated with coat buffer only. After a wash step with 200 μl of PBS/0.1% v/v Tween 20, plates were blocked with 300 μl of PBS/1% v/v Tween 20, for two hours at room temperature while shaking. All subsequent incubations were performed in PBS/0.1% v/v Tween 20 for one hour at room temperature while shaking, with volumes of 50 μl per well. After each incubation, wells were washed five times with 200 μl of PBS/0.1% v/v Tween 20. Increasing amounts of f.l. tPA or K2-P tPA was added in triplicate to coated wells and to control wells. […] Absorbance was read at 490 nm on a Vmax kinetic microplate reader (Molecular Devices, Sunnyvale, Calif., USA). […]

[3] = target: T5, albumin-g6p (albumin-AGE) (Bos taurus, UniProt P02769); test: ELISA: binding of tPA (f.l. tPA, K2-P tPA) to albumin-g6p, with Congo red competition; design: species or system bovine; conditions: 20 nM tPA, increasing Congo red
T5 construct: Bovine serum albumin (BSA) fraction V pH 7.0; host or cells: bovine serum, fraction V
Description: as §2

IAPP fibrils = target: T6, IAPP fibrils (Homo sapiens, UniProt P10997); test: Amyloid pull-down with IAPP fibrils; type: binding; conditions: conditioned BHK medium
T6 construct: purchased Pepscan, Inc. (The Netherlands) or peptide synthesis facility at the Netherlands Cancer Institute; host or cells: synthetic peptide
T6 sequence (P10997 34-70 limits assumed): T4 sequence (P10997 34-70 limits assumed)
Description: Conditioned medium of BHK cells expressing GST-tagged tPA F, F-EGF, EGF, K1, F-EGF-K1, FXII F, HGFa F, Fn F4, Fn F5, Fn F4-5 and GST was used for amyloid binding assays. At first, constructs were adjusted to approximately equal concentration using Western blots. Qualitative binding of the recombinant fragments were evaluated using a “pull-down” assay. To this end, the recombinantly made fragments were incubated with either Aβ or IAPP fibrils. Since these peptides form insoluble fibers, unbound proteins can be easily removed from the fibers following centrifugation. The pellets containing the bound fragments were subsequently washed several times. Bound fragments were solubilized in SDS-sample buffer and analyzed by PAGE, as were unbound proteins in the supernatant fraction and starting material. The gels were analyzed using immunoblotting analysis with the anti-GST antibody Z-5.

T2 sequence (P05067 672-711): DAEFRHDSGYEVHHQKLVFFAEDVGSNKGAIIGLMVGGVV
T5 sequence (P02769 25-607): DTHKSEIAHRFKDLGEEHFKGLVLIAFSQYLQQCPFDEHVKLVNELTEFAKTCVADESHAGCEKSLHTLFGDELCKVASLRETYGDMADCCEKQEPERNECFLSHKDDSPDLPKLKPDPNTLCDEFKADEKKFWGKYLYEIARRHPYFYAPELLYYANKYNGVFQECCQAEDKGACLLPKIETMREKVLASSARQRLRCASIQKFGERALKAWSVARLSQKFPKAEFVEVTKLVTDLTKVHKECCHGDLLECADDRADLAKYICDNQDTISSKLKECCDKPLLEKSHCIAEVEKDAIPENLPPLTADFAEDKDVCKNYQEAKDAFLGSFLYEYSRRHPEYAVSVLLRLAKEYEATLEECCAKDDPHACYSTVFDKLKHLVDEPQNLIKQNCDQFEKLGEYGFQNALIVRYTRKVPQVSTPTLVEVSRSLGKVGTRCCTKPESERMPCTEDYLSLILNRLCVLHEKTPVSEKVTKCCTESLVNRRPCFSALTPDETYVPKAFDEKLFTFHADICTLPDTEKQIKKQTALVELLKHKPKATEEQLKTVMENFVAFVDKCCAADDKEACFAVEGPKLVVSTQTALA
T1 sequence (P05067 672-711): as the sequence (P05067 672-711) above
Aβ (1-40), sequence (P05067 672-711): as above

| Compound | binding to Aβ (Aβ) | binding to amyloid deposits in AD brain sections [1] | binding to Aβ fibers (pull-down, Western blot) (Aβ fibrils) | binding to FP13 [2] | binding to IAPP (IAPP) | competition of tPA binding to Aβ (Aβ (1-40)) | competition of tPA binding to albumin-g6p [3] | binding to IAPP fibrils (pull-down, not shown) (IAPP fibrils) |
| --- | --- | --- | --- | --- | --- | --- | --- | --- |
| GST: glutathion-S-transferase tag alone, negative control | some binding | did not show specific binding | remain in the supernatant | did not bind | did not bind |  |  |  |
| Nc1c(/N=N/c2ccc(-c3ccc(/N=N/c4cc(S(=O)(=O)O)c5ccccc5c4N)cc3)cc2)cc(S(=O)(=O)O)c2ccccc12 [Congo red] |  |  |  |  |  | competed | competed |  |
| HGFa F-GST: finger domain of human hepatocyte growth factor activator with GST tag |  |  | specifically bind |  |  |  |  | specifically bind |
